These results are taken from patent US20160002357A1 (Pfizer, published 2016).

Positions count from the first letter of the chain named.

Sequences and labels used below:
B1: anti-P-cadherin scFv 153 (parental clone 153), displayed on phage (scFv, V domains shown)
VH: EVQLVQSGAEVKKPGASVKVSCKASGYTFTSYGISWVRQAPGQGLEWMGWISAYNGNTNYAQKLQGRVTMTTDTSTSTAYMELRSLRSDDTAVYYCATIDTANAFGIWGQGTMVTVSS
VL: QSVLTQPPSVSAAPGQKVTISCSGSSSNIGNNYVSWYQQLPGTAPKLLIYDNNKRPSGIPDRFSGSKSGTSATLGITGLQTGDEADYYCGTWDSSLSGVVFGGGTKLTVL
notes: scFv expressed on the surface of phage
B2: anti-P-cadherin scFv 153 alanine-mutant L3.7-Ala (scFv, V domains shown)
VH: B1 VH
VL: B1 VL with L96A
notes: scFv on phage
B3: anti-P-cadherin scFv 153 alanine-mutant L3.11-Ala (scFv, V domains shown)
VH: B1 VH
VL: B1 VL with V100A
notes: scFv on phage
B4: anti-P-cadherin scFv 153 alanine-mutant L3.10-Ala (scFv, V domains shown)
VH: B1 VH
VL: B1 VL with V99A
notes: scFv on phage
B5: anti-P-cadherin scFv 153 alanine-mutant L3.8-Ala (scFv, V domains shown)
VH: B1 VH
VL: B1 VL with S97A
notes: scFv on phage
B6: anti-P-cadherin scFv 153 alanine-mutant L3.9-Ala (scFv, V domains shown)
VH: B1 VH
VL: B1 VL with G98A
notes: scFv on phage
B7: 177 EK-DART (bispecific antibody)
chain 1: QSVLTQPPSVSAAPGQKVTISCSGSSSNIGNNYVSWYQQLPGTAPKLLIYDNNKRPSGIPDRFSGSKSGTSATLGITGLQTGDEADYYCGTWDSSLSAYVFGTGTKVTVLGGGSGGGGEVQLVESGGGLVQPGGSLRLSCAASGFTFNTYAMNWVRQAPGKGLEWVARIRSKYNNYATYYADSVKDRFTISRDDSKNSLYLQMNSLKTEDTAVYYCVRHGNFGNSYVSWFAYWGQGTLVTVSSGGCGGGKVAALKEKVAALKEKVAALKEKVAALKE
chain 2: QAVVTQEPSLTVSPGGTVTLTCRSSTGAVTTSNYANWVQQKPGQAPRGLIGGTNKRAPWTPARFSGSLLGGKAALTITGAQAEDEADYYCALWYSNLWVFGGGTKLTVLGGGGSGGGGEVQLVQSGAEVKKPGASVKVSCKASGYTFTSYGISWVRQAPGQGLEWMGWISAYNGNTNYAQKLQGRVTMTTDTSTSTAYMELRSLRSDDTAVYYCATIDTANAFDIWGQGTMVTVSSGGCGGGEVAALEKEVAALEKEVAALEKEVAALEK
notes: the K-coil chain is assembled from parts with CD3-2 VH
B8: 165 EK-DART (bispecific antibody)
chain 1: B7 chain 1 with T81A
chain 2: B7 chain 2
B9: 180 EK-DART (bispecific antibody)
chain 1: B7 chain 1 with L4V
chain 2: B7 chain 2
notes: also called P-CAD 180 EK-DART (CD3-2)
B10: 179 EK-DART (bispecific antibody)
chain 1: B7 chain 1 with S26R, N52S, A98S, Y99W, T103G, V107L
chain 2: B7 chain 2
B11: 178 EK-DART (bispecific antibody)
chain 1: B7 chain 1 with Y99V, T103G, V107L
chain 2: B7 chain 2
B12: 154 EK-DART (bispecific antibody)
chain 1: B7 chain 1 with A98S
chain 2: B7 chain 2 with N221T
B13: 33 EK-DART (P-CAD 33 x CD3-2) (bispecific antibody)
chain 1: B7 chain 1
chain 2: B7 chain 2 with E119Q, V120M, T216L, D218G, T219S, A220G, N221V
B14: 34 EK-DART (P-CAD 34 x CD3-2) (bispecific antibody)
chain 1: B7 chain 1 with L4V, Y99W, T103G, V107L
chain 2: B7 chain 2 with N221S
B15: 154 EK-DART (P-CAD 154 x CD3-2) (bispecific antibody)
chain 1: B7 chain 1 with A98S
chain 2: B7 chain 2 with N221T
B16: 180 EK-DART (P-CAD 180 x CD3-2) (bispecific antibody)
chain 1: B7 chain 1 with L4V
chain 2: B7 chain 2
B17: 179 EK-DART (P-CAD 179 x CD3-2) (bispecific antibody)
chain 1: B7 chain 1 with S26R, N52S, A98S, Y99W, T103G, V107L
chain 2: B7 chain 2
B18: 177 EK-DART (P-CAD 177 x CD3-2) (bispecific antibody)
chain 1: B7 chain 1
chain 2: B7 chain 2
B19: 178 EK-DART (P-CAD 178 x CD3-2) (bispecific antibody)
chain 1: B7 chain 1 with Y99V, T103G, V107L
chain 2: B7 chain 2
B20: 165 EK-DART (P-CAD 165 x CD3-2) (bispecific antibody)
chain 1: B7 chain 1 with T81A
chain 2: B7 chain 2
B21: 153 EK-DART (P-CAD 153 x CD3-2) (bispecific antibody)
chain 1: B7 chain 1 with A98G, Y99V, T103G, V107L
chain 2: B7 chain 2 with D224G

T3 sequence (P22223 108-829): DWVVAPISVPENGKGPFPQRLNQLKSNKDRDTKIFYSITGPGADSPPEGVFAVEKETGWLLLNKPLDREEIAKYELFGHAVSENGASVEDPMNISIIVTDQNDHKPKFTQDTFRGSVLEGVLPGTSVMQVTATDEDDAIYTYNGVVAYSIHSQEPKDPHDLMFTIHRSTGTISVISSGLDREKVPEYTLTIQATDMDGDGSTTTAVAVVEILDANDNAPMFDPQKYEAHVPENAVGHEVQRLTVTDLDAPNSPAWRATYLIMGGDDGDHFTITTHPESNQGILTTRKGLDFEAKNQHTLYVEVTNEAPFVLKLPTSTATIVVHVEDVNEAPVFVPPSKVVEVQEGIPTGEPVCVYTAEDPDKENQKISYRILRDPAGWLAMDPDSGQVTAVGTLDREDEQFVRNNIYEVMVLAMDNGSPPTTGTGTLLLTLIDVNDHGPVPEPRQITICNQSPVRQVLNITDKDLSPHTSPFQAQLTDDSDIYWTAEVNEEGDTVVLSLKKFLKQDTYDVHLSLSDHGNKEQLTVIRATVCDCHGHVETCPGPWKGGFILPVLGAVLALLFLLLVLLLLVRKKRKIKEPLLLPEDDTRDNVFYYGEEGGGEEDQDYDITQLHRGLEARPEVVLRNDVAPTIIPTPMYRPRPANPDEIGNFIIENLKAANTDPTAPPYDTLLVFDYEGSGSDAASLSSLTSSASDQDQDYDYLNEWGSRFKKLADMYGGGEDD

The target of one experiment is T1, P-cadherin-ECD1-3-Fc protein (human P-cadherin-Fc) (human, UniProt P22223 108-440).
T1 construct: Construct was expressed with signal peptide and pro-peptide (PACE co-transfected to process the propeptide); not shown: hinge and CH2 and CH3 domains of human IgG1
T1 sequence (P22223 108-440): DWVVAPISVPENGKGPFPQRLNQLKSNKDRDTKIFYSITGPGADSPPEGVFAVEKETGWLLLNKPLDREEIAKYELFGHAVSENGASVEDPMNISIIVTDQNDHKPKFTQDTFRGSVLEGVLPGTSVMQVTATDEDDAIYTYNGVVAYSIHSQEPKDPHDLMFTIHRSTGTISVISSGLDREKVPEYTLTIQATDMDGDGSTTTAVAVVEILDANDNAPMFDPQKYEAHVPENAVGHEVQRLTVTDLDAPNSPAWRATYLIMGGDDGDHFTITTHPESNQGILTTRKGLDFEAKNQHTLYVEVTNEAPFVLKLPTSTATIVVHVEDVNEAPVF
As to the kind of experiment: phage scFv ELISA, coated P-cadherin-ECD1-3-Fc. The method, then:
ScFvs may be expressed on the surface of a phage particle. To prepare phage expressing scFv on their surface, 96-deep well plates containing 1 mL 2× TY media with 2% glucose/100 μg/mL ampicillin were inoculated with 0.5-1 μL from thawed glycerol stocks (one clone per well) using the QPix™2 Colony picker (Molecular Devices, Sunnyvale Calif.) and grown at 37° C. (900 rpm) for ˜4 hours. Next, 5 μL of a 1:29 dilution of helper phage (8.3×10¹³ pfu) was added and the plates and incubated for a further 30 minutes at 37° C. with no shaking then 1 hour at 300 rpm. Plates were centrifuged and the media was replaced with a kanamycin/non-glucose containing media (2× TY with 50 μg/mL kanamycin and 100 μg/mL ampicillin). Plates were grown overnight at 25° C. (900 rpm), and phage were harvested in the supernatant following centrifugation.
(§1) P-cadherin-ECD1-3-Fc protein or negative control protein was coated overnight at 4° C. on 96-well Nunc Maxisorp® plates (Thermo Fisher Scientific, Madison, Conn.) at a concentration of 2 μg/mL in PBS+Ca²⁺ and Mg²⁺. Plates were washed three times using PBS+Ca²⁺ and Mg²⁺ and blocked for 1 hour at room temperature in 3% milk/PBS+Ca²⁺ and Mg²⁺. Phage samples prepared as described above were added to the blocked plates for 1 hour at room temperature. Plates were washed three times with PBS+Ca²⁺ and Mg²⁺ prior to the addition of secondary antibody (anti M13-HRP 1:2000, GE Healthcare, Piscataway, N.J.). Plates were incubated for a further 1 hour at room temperature and washed six times with PBS+Ca²⁺ and Mg²⁺. Signal was developed using TMB (SurModics, Eden Prairie, Minn.), the reaction stopped with H₂SO₄ and the absorbance read at 450 nm on an EnVision® plate reader (Perkin Elmer, Waltham, Mass.).
As to B1, the “% of binding of Clone #153 to human P-cadherin-Fc” value was determined as 100%, the “Human P-cadherin-Fc binding (OD450)” value turned out to be 1.32 OD450 and the “Z Score” value was found to be 0.

For B2, the “% of binding of Clone #153 to human P-cadherin-Fc” value came to 173%, the “Human P-cadherin-Fc binding (OD450)” value worked out at 2.29 OD450 and the “Z Score” value came out at 1.6.

With B3, the “% of binding of Clone #153 to human P-cadherin-Fc” value stood at 104%, the “Human P-cadherin-Fc binding (OD450)” value worked out at 1.38 OD450 and the “Z Score” value was found to be 0.1.

On to B4, for which the “% of binding of Clone #153 to human P-cadherin-Fc” value is 141%, the “Human P-cadherin-Fc binding (OD450)” value was 1.86 OD450 and the “Z Score” value was determined as 0.9.

As for B5, the “% of binding of Clone #153 to human P-cadherin-Fc” value stood at 173%, the “Human P-cadherin-Fc binding (OD450)” value amounted to 2.28 OD450 and the “Z Score” value was 1.5.

As for B6, the “% of binding of Clone #153 to human P-cadherin-Fc” value stood at 166%, the “Human P-cadherin-Fc binding (OD450)” value is 2.19 OD450 and the “Z Score” value was found to be 1.4.

In the next experiment the target is T2, cynomolgus monkey P-cadherin ECD (cynomolgus monkey).
T2 construct: extracellular domain; also called cyno P-cadherin ECD; Cyno P-cadherin
In words: SPR Biacore. The method, then: Binding affinity of EK-DART proteins to P-cadherin and CD3 was analyzed by SPR using a BIACORE® 3000 biosensor (GE Healthcare). The antigens huCD3εδ and either human P-cadherin-Fc or human/cynomolgus monkey/murine P-cadherin-ECD were immobilized on the CM-5 sensor chip by amine coupling kit as recommended by the manufacturer. […] All EK-DART proteins in Tables 15 and 16 comprise CD3-2.
All EK-DART proteins in Table 17 comprise CD3-2.
Background: SPR reads the build-up and loss of mass on a sensor chip optically.
B7: the Kd worked out at 0.483 nM, the koff was 0.000383 s⁻¹ and the association rate constant (kon) came out at 802000 M⁻¹ s⁻¹.

B8 yielded a Kd of 0.37 nM, a koff of 0.000309 s⁻¹ and a kon of 834000 M⁻¹ s⁻¹.

In the case of B9, the dissociation constant Kd was determined as 0.966 nM, the koff was found to be 0.000744 s⁻¹ and the kon was found to be 771000 M⁻¹ s⁻¹.

The molecule B10 registered a Kd of 4.17 nM, an off-rate (koff) of 0.00458 s⁻¹ and a kon of 1.11e+06 M⁻¹ s⁻¹.

The molecule B11 came in with a Kd of 1.31 nM, a koff of 0.000216 s⁻¹ and a kon of 167000 M⁻¹ s⁻¹.

As to B12, the Kd amounted to 3.93 nM, the koff stood at 0.0039 s⁻¹ and the association rate constant (kon) is 1.04e+06 M⁻¹ s⁻¹.

A further experiment has as its target T3, human P-cadherin, cell surface expressed (human, UniProt P22223 108-829). As to the kind of experiment: cell-based or functional assay.
In the case of B13, the “T cell directed cytotoxicity EC50, CHO-CDh3 (24 h), LDH release, human PBMC E:T 30:1” value turned out to be 0.309 nM; the “T cell directed cytotoxicity EC50, H1650 (24 h), LDH release, human PBMC E:T 30:1” value is 4.1 nM; the “T cell directed cytotoxicity EC50, H1650 (40 h), LDH release, human PBMC E:T 30:1” value was 1.12 nM.

As to B14, the “T cell directed cytotoxicity EC50, CHO-CDh3 (24 h), LDH release, human PBMC E:T 30:1” value is 0.737 nM; the “T cell directed cytotoxicity EC50, H1650 (24 h), LDH release, human PBMC E:T 30:1” value was determined as 5.6 nM; the “T cell directed cytotoxicity EC50, H1650 (40 h), LDH release, human PBMC E:T 30:1” value stood at 1.6 nM.

In another experiment the target is T3, human P-cadherin, cell surface expressed. In words: cell-based or functional assay. This is another data set of the same source.
With B15, the “T cell directed cytotoxicity EC50, H1650 LDH 24 hr 30:1 D41183” value amounted to 0.0107 nM and the “T cell directed cytotoxicity EC50, HCT116 Luc 48 hr 10:1 D43905” value was found to be 0.0166 nM.

For B16, the “T cell directed cytotoxicity EC50, H1650 LDH 24 hr 30:1 D41183” value came out at 0.0016 nM and the “T cell directed cytotoxicity EC50, HCT116 Luc 48 hr 10:1 D43905” value was 0.0018 nM.

For B17, the “T cell directed cytotoxicity EC50, H1650 LDH 24 hr 30:1 D41183” value worked out at 0.0178 nM and the “T cell directed cytotoxicity EC50, HCT116 Luc 48 hr 10:1 D43905” value worked out at 0.0432 nM.

For B18, the “T cell directed cytotoxicity EC50, H1650 LDH 24 hr 30:1 D41183” value is 0.0011 nM and the “T cell directed cytotoxicity EC50, HCT116 Luc 48 hr 10:1 D43905” value was 0.0007 nM.

On to B19, for which the “T cell directed cytotoxicity EC50, H1650 LDH 24 hr 30:1 D41183” value is 0.0008 nM and the “T cell directed cytotoxicity EC50, HCT116 Luc 48 hr 10:1 D43905” value is 0.0018 nM.

As for B20, the “T cell directed cytotoxicity EC50, H1650 LDH 24 hr 30:1 D41183” value came to 0.0011 nM and the “T cell directed cytotoxicity EC50, HCT116 Luc 48 hr 10:1 D43905” value came to 0.0015 nM.

Regarding B21, the “T cell directed cytotoxicity EC50, H1650 LDH 24 hr 30:1 D41183” value stood at 0.0008 nM and the “T cell directed cytotoxicity EC50, HCT116 Luc 48 hr 10:1 D43905” value stood at 0.0005 nM.

A further experiment has as its target T1, P-cadherin-ECD1-3-Fc protein (human …). As to the kind of experiment: phage scFv ELISA, coated P-cadherin-ECD1-3-Fc. The source holds these as a separate data set. The method, then:
as §1
On the technique in general: In an ELISA, binding on a coated surface is turned into a signal by an enzyme label.
As for B1, the “% of binding of Clone #153 to human P-cadherin-Fc” value came out at 100%, the “Human P-cadherin-Fc binding (OD450)” value came to 1.32 OD450 and the “Z Score” value was 0.

A word on the Kd: it is the concentration at which binding is half-saturated. The koff is the rate constant with which the complex falls apart. Broadly, the kon is the rate constant with which the complex forms.
